Experimental data taken from patent US20240016847A1 (TRUSTEES OF COLUMBIA UNIVERSITY IN THE CITY OF NEW YORK, published 2024).

Legend:
[1] = target: sfGFP linked to the PlGF123-144 peptide sequence with a flexible glycine-serine linker at the C-terminus …; assay: cell-based or functional assay
[2] = target: sfGFP with a cysteine substitution at position D117 (D117C synthetic antigen) (Aequorea victoria (Water jellyfish) …, UniProt P42212 2-238 = GFP); assay: cell-based or functional assay

B1: GFP specific ProCAR construct (GFP28z): sfGFP-binding nanobody, IgG4 hinge, CD28 transmembrane and intracellular domains, CD3zeta signaling domain (receptor)
chain: QVQLQESGGGSVQAGGSLKLSCAASGGAYRNACMGWFRQAPGKEREGVAIINSVDTTYYADPVKGRFTISRDNAKSTVYLLMNSLKPEDTAIYYCAQVARVVCPGDKLGASGYNYWGQGTQVTVSSGSESKYGPPCPCPAFWVLVVVGGVLACYSLLVTVAFIIFWVRSKRSRLLHSDYMNMTPRRPGPTRKHYQPYAPPRDFAAYRSLRVKFSRSADAPAYQQGQNQLYNELNLGRREEYDVLDKRRGRDPEMGGKPRRKNPQEGLYNELQKDKMAEAYSEIGMKGERRRGKGHDGLYQGLSTATKDTYDALHMQALPPR
In the case of B1, the “SA-driven fold expansion of GFP28z” value [1] is reported as 8 fold, the “viability of GFP28z T cells after 24 hr with 500 ng/mL PlGF-SA, relative to untreated controls” value [1] is reported as ~72 % of untreated controls and the “SA-driven fold expansion of GFP28z” value [2] is reported as 8 fold.
